Source: patent US9725702B2, “Laccase from ganoderma lucidum capable of enhancing enzymatic degradation of lignocellulolytic biomass” (DANMARKS TEKNISKE UNIVERSITET, priority 2012, dated 2017)

Key:
Type in all cases: biochemical
[1] = Laccase-cellulase catalyzed hydrolysis of pretreated biomass, glucose release; conditions: with cellulase 1 or 2, pH 5.1, 50° C., 30 hour
Experimental: (§1) FIG. 15. A graphical comparison of glucose released over time during hydrolysis of pre-treated wheaty straw at pH 5.1 and 50° C. by each of commercial enzyme preparations Cellulase 1 (CC2) [A]; or Cellulase 2 [B], either alone, or in combination with a laccase enzyme; the tested laccases being respectively LacGL1 and GLlac1 (LacJooSS; Q9HG17) derived from G. lucidum; and laccases derived from Agaricus bisporus (Sigma 40452), Pleurotus ostreatus (Sigma 75117) and, Trametes versicolor (Sigma 51639).
(§2) The commercial fungal laccases were purchased as lyophilized protein samples from Sigma Aldrich. A solution of each of the above 5 laccases was prepared in a citric buffer containing 20% of glycerol (pH 5.1, 100 mM).
(§3) Two different commercially available cellulase enzyme preparations used in the comparative study were “Cellulase 1” and “Cellulase 2”, which were tested in combination with each of the laccases listed above.
(§4) The three different types of pretreated biomass used in the comparative study were sugarcane bagasse, barley straw and wheat straw. The source and pre-treatment of the sugarcane bagasse by steam explosion was as set out in Example 9. […] The composition of the dry and the pretreated biomass were determined according to the US National Renewable Energy Laboratory (NREL) procedures (Sluiter et al, 2010).
(§5) The laccase-cellulase catalyzed hydrolysis of the pretreated biomass samples to release glucose was performed as follows: Hydrolysis of 5% (w/v) samples of pretreated sugarcane bagasse, barley straw, and wheat straw biomass were assayed using an Enzyme/Substrate (E/S) ratio of 0.064% w/w for laccases and of 0.4% w/w for each commercial cellulase preparation in each hydrolysis reaction. The E/S dosage was based on the total protein concentration used, as determined using Pierce BCA (BiCinchoninic Acid) protein assay kit microplate procedure according to manufacturer's instruction (Thermo Fisher Scientific, Rockford, US). […]
(§6) Laccase and cellulase-mediated hydrolysis of the 3 biomass forms, measured as glucose release, are shown graphically in FIGS. 13, 14 and 15. […]

[2] = as above; conditions: with cellulase 1 or 2, pH 5.1, 50° C., 30 hour; remark: listed apart in the source
Experimental: as §1, with “13.” for “15.”, “STEX-SCB” for “pre-treated wheaty straw”
as §2, §3, §4, §5, §6

[3] = as above; conditions: with cellulase 1 or 2, pH 5.1, 50° C., 30 hour, p<0.05
Experimental: as §1, with “14.” for “15.”, “barley” for “wheaty”
as §2, §3, §4, §5, §6

glucose release compared to GLlac1 [1]: the same | glucose release compared to the other tested laccases ([1]; p<0.05): significantly enhanced | glucose release compared to GLlac1 [2]: the same | glucose release compared to the other tested laccases ([2]; p<0.05): significantly enhanced | glucose release compared to GLlac1 [3]: significantly greater | glucose release compared to the other tested laccases [3]: significantly enhanced
B1: LacGL1: Fungal laccase from Ganoderma lucidum CBS229.93 (SEQ ID NO: 5/9), recombinantly expressed in Pichia pastoris X-33 (protein, listed as Ganoderma lucidum)
chain: GIGPKTDLTISNADVAPDGYTRAAVVVNGVFPAPLITGNKGDRFQLNVIDQMTNHTMLKSTSIHWHGFFQKGTNWADGPAFINQCPISSGHSFLYDFQVPDQAGTFWYHSHLSTQYCDGLRGPFVVYDPKDPLKKLYDIDDDSTVITLTDWYHVAARLGPRFPLGSDSTLINGLGRSTTNVTADLAVINVTQGKRYRFRLVSLSCDPNYTFSIDDHNMTVIEADGIETQPVTVNAIQIFSAQRYSFVLTANQTIDNYWIRANPNFGNVGFTDGINSAILRYAGADPVEPTTSQQTTQNLLNEVDLHPFVPKRTPGQPTQGGVDTAINMVFNFNGSNFFINNASFVPPTVPVLLQILSGAQAAQDLLPSGSVYTLPVNKSIELTFPATANAPGAPHPFHLHGHAFAVVRSAGSTVYNYDNPVWRDVVSTGTPAAGDNVTIRFQTDNPGPWFLHCHIDFHLEAGFAVVFAEDPTDTSLANPVPKAWSDLCPTYDALSVDDQ
modifications: mat_peptide (1)..(499) Mature LacGL1 laccase (minus signal peptide)
